We go through four molecules from PMC9883506, “Self-recycling and partially conservative replication of mycobacterial methylmannose polysaccharides” (Communications Biology, 2023).

Data set [1] deals with T1, MeT1 (Mycolicibacterium hassiacum, UniProt K5B7F3).
T1 construct: full length, C-terminal His6 tag (pET30a), synthetic gene, E. coli BL21(DE3)
The experiment in a line: SahH-coupled DTNB assay of SAH release. The data set is classed as biochemical. The settings on record: 100 μM MnCl2, BTP pH 7.5.

Substrate in data set [2]: CCCO[C@H]1O[C@H](CO)[C@@H](O[C@H]2O[C@H](CO)[C@@H](O[C@H]3O[C@H](CO)[C@@H](O[C@H]4O[C@H](CO)[C@@H](O)[C@H](OC)[C@@H]4O)[C@H](OC)[C@@H]3O)[C@H](OC)[C@@H]2O)[C@H](OC)[C@@H]1O
The data set is described as follows: coupled PK/LDH NADH assay of GDP release. The settings on record: 2.5 mM GDP-Man, 7.5 mM MgCl2, 5 mM NaCl, 0.1% Triton X-100, 50 mM BTP pH 8.5, 37 °C, acceptor. The format is biochemical, Mycolicibacterium hassiacum. The text has this: (§1) coupled PK/LDH NADH assay of GDP release on ManT

Substrate in data set [3]: Nc1nc2c(ncn2[C@@H]2O[C@H](COP(=O)(O)OP(=O)(O)O[C@H]3O[C@H](CO)[C@@H](O)[C@H](O)[C@@H]3O)[C@@H](O)[C@H]2O)c(=O)[nH]1
The experiment in a line: coupled PK/LDH NADH assay of GDP release. The data set is classed as biochemical, Mycolicibacterium hassiacum. The settings on record: 0.1% Triton X-100, 50 mM BTP pH 8.5, 37 °C, donor.
Text: as §1

Substrate in data set [4]: CCCO[C@H]1O[C@H](CO)[C@@H](O[C@H]2O[C@H](CO)[C@@H](O[C@H]3O[C@H](CO)[C@@H](O[C@H]4O[C@H](CO)[C@@H](O)[C@H](O)[C@@H]4O)[C@H](O)[C@@H]3O)[C@H](O)[C@@H]2O)[C@H](O)[C@@H]1O
The experiment in a line: coupled PK/LDH NADH assay of GDP release. The data set is classed as biochemical, Mycolicibacterium hassiacum. The conditions noted are these: 5 mM GDP-Man, 7.5 mM MgCl2, 5 mM NaCl, 0.1% Triton X-100, 50 mM BTP pH 8.5, 37 °C, acceptor.
Text: as §1

The mark [5] stands for this setting: 3.5 mM sMetMan4, 7.5 mM MgCl2, 5 mM NaCl.
Setting [6] is: 1.5 mM sMetMan4, 7.5 mM MgCl2, 5 mM NaCl.

T1 sequence (K5B7F3 whole entry): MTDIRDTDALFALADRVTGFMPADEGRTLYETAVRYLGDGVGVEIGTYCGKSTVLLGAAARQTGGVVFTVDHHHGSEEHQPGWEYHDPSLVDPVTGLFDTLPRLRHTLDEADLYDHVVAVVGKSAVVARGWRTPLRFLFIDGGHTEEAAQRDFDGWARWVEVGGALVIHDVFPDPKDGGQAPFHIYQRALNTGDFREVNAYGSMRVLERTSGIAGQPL

For `CO[C@@H]1[C@H](O)[C@@H](O[C@H]2[C@H](OC)[C@H](O)C(O)O[C@@H]2CO)O[C@H](CO)[C@H]1O` (stereo partly drawn) [sMetMan2], the “SahH-coupled DTNB assay of SAH release” value in data set [1] (1 mM SAM, 1.5 mM acceptor) was “The activity of MeT1 toward the synthetic substrate sMetMan2 and the two natural substrates”.
With `C[S+](CC[C@H](N)C(=O)O)C[C@H]1O[C@@H](n2cnc3c(N)ncnc32)[C@H](O)[C@@H]1O` (stereo partly drawn) [SAM, S-adenosyl-methionine], in data set [1] (1.5 mM oligomannoside acceptor, methyl donor), the “SahH-coupled DTNB assay of SAH release” value was “quantified from the S-adenosyl-homocysteine (SAH) released from SAM through a continuous”.

B1: ManT (Mycolicibacterium hassiacum DSM 44199; E313A) (protein)
chain: MRIALLSYRSKTHCGGQGVYVRHLSRELAELGHDVEVFSGQPYPEGLDPRVRLTKVPSLDLYREPDPFRIPRPSEIKTSIDLEELLTTWTAGFPEPKTFSLRAARVLAGRRGDFDVVHDNQCLGTGLLQIAKMGFPLVATVHHPITRDREVEVAAARWWRKPLVRRWYGFVEMQKRVARQIPELLTVSSASASDILTDFAVSPEQLHVVPLGVDTKLFQPREGRVRNRIIAIASADVPLKGVSHLLHAVARLRVERDVELQLVTKLEPNGPTEKLIAELGISDIVHTSSGLSDEELAALLASAEVACIPSLYAGFSLPAVEAMASGTPIVASRAGALPEVVGPDGECARLVTPADVDELTAVLGRLLDSPRELRRLGDNGRRRAVEVFSWQSVAAQTVAVYEKAIARVAAC
notes: full length, N-terminal His6 tag (pETM11, tag not removed), synthetic gene, E. coli BL21(DE3); purified with Triton X-100
For B1, in data set [2], the Km (commonly the concentration of substrate that gives half-maximal velocity) was 1180 ± 300 µM and the kcat/Km (commonly the turnover number divided by the Michaelis constant) was found to be 5 ± 1 M⁻¹ s⁻¹. Moreover, in data set [3] (setting [5]), the Km is 1230 ± 300 µM and the kcat/Km is 7 ± 2 M⁻¹ s⁻¹.

B2: ManT (Mycolicibacterium hassiacum DSM 44199) (protein)
chain: MRIALLSYRSKTHCGGQGVYVRHLSRELAELGHDVEVFSGQPYPEGLDPRVRLTKVPSLDLYREPDPFRIPRPSEIKTSIDLEELLTTWTAGFPEPKTFSLRAARVLAGRRGDFDVVHDNQCLGTGLLQIAKMGFPLVATVHHPITRDREVEVAAARWWRKPLVRRWYGFVEMQKRVARQIPELLTVSSASASDILTDFAVSPEQLHVVPLGVDTKLFQPREGRVRNRIIAIASADVPLKGVSHLLHAVARLRVERDVELQLVTKLEPNGPTEKLIAELGISDIVHTSSGLSDEELAALLASAEVACIPSLYEGFSLPAVEAMASGTPIVASRAGALPEVVGPDGECARLVTPADVDELTAVLGRLLDSPRELRRLGDNGRRRAVEVFSWQSVAAQTVAVYEKAIARVAAC
notes: as for B1
For the molecule B2, the figures for the Km in data set [2], in data set [4] and in data set [3] (setting [6]) were 130 ± 30 µM, 2780 ± 450 µM and 280 ± 50 µM, respectively. The kcat/Km in data set [2] stood at 362 ± 68 M⁻¹ s⁻¹; in data set [4] it was 9 ± 2 M⁻¹ s⁻¹; in data set [3] (setting [6]) it was 171 ± 33 M⁻¹ s⁻¹.
